{"source": "the nanobody polyreactivity screen of Harvey et al. (2022)", "data": [{"test": "yeast display, Sf9 membrane polyspecificity reagent, FACS + sequencing; frameworks hold sequencing errors", "procedure,_shortened": "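In a synthetic yeast display library (Saccharomyces cerevisiae BJ5465), nanobody expression was induced with galactose for 36–48 hours. FACS gates were set low and high (top ~1%) using anti-HA fluorescence for expression and streptavidin fluorescence for binding of the Sf9 membrane reagent. Each polyreactivity label is drawn from the gate of origin.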", "values": [{"sequence": "QVQLVESGGGLVQAGGSLRLSCAASGRTFPYYVMGWYRQAPGKERELVATISSSGRTYYADSVKGRFTISRDNAKNTVYLQMNSLKPEDTAVYYCAARFRWNQNYHFYSWGQGTQVTVSS", "polyreactivity (PSR sort gate)": "high polyreactivity"}, {"sequence": "QVQLVESGGGLVHAGGSLRLSCAASGFTFGSNAMGWYRQAPGKERELVAAISSRGGRTYYADSVKGRFTISRDNAKNTVYLQMNRLKPDDTAVYYCNADATVAWREQEYEYWGQGTQVSVSS", "polyreactivity (PSR sort gate)": "high polyreactivity"}, {"sequence": "QVQLVESGGGLVQAGGSLRLSCAASGFILYGNTMGWYRHAPGKDRELVAAISWSGGNTRYADSVKGRFTISRDNAKNTVYLQMNSLKQDDTAVYYCAAYSKYVLSIRRDYWGQGTQVTVSS", "polyreactivity (PSR sort gate)": "low polyreactivity"}, {"sequence": "QVQLVESGGGLVQAGGSLRLSCAASGFYYGMGWYRQAPGKERELVAAISRGGSTYYADSVKGRFTISRDNAKNTVYLQMNSLKPEDTAVYYCAATYRSLYGSRMGYWGQGTQVTVSS", "polyreactivity (PSR sort gate)": "high polyreactivity"}, {"sequence": "QEQLEESGGGVVQAGGSLRLSCAAYGSIFYAYSMGWYRQAPGKEREFVAASSKRGGSTYYSDSVKGRFTISRDNEKNTVYLQMNSLKPEDTAVYYCYVGYGYWRGVKQSYDRFDYWGQGTQVTVSS", "polyreactivity (PSR sort gate)": "high polyreactivity"}, {"sequence": "QVQLVESGGGLVQAGGSLRLSCAASGRIFPYYTMGWYRQAPGKERELVAAISSSGGSTYYADSVKGRFTISRDNAKNTVYLQMNSLKPEDTAVYYCNIRRHSLYGGTTTRYDYWGQGTQVTVSS", "polyreactivity (PSR sort gate)": "high polyreactivity"}, {"sequence": "QVQLVESGGGLVQAGGSLRLSCAASGSTFRFNAMGWYRQAPGKERELVAAISGSGGSTYYADSVKGRFTISRDNAKNTVYLQMNSLKPEDTAVYYCAASASSRSYFKSYYWGQGTQVTVSS", "polyreactivity (PSR sort gate)": "high polyreactivity"}, {"sequence": "QVQLVESGGGLVQAGGSLRLSCAASGDIFDAYAMGWYRQAPGKERELVAAISRSGGSTYYADSVKGRFTISRDNAKNTVYLQMNSLKPEDTAVYYCATRFSRRYVRYDYWGQGTQVTVSS", "polyreactivity (PSR sort gate)": "high polyreactivity"}, {"sequence": "QVHLVESGGGLVQAGGSLRLSCAASGRIFGGNVMGWYIQAPGKERELVAAISWSSGSTYYADSVKVLFTISLDNAKNTVYLQMNSQKPDDTSFYYCAADNSFRGYHSPYDYWGQGTQVTVSS", "polyreactivity (PSR sort gate)": "low polyreactivity"}, {"sequence": "QFQLVEAGGGLVQAGGSLRLSCAASGRIFTYYAMGWYSQAPGKERELVAAITGSGGSTYYADSVKGRFTISRDNAKTTVYLQMISLKPEDTAVYYCARTDRRLGAHQGDYWGQGTQVTVSS", "polyreactivity (PSR sort gate)": "high polyreactivity"}, {"sequence": "QVQLVESAGGLVQAGGSLRLSCAASGRIFPFYAMGWYRQAPGKERELVAAISWNGGSTFYADSVKGRFTISRDNAKNTVYLQMNSLKPEDTAVYYCNADCRPAYTYDYWGQGTQVTVSS", "polyreactivity (PSR sort gate)": "low polyreactivity"}, {"sequence": "QVQLVEAGGGLVLAGGSLRLSCAASGIIFVSYAMGWSRQAPGKERELVASISWSGGRTYYADSVKARFTISRDNAKNTVYLQMNSLKPEDTAVYFCAAAYRTRSGVRRYPWFNYWGQGTQVTVSS", "polyreactivity (PSR sort gate)": "high polyreactivity"}, {"sequence": "QVQLQESGGGLVQAGGSLRLSCAASGYISQSSVMGWYRQAPGKEREFVASISYGATTYYADSVKGRFTISRDNAKNTVYLQTNSPKPEDTAVYYCAVLVKRGFSHRYWGQGTQVTVSS", "polyreactivity (PSR sort gate)": "high polyreactivity"}, {"sequence": "QVQLVESGGGLVQAGGSLRLSCAASGSTFGSYAMGWYRQAPGTERELVAAISRAGSTYADSVKGRFTISRDNAKNTVYLQMHSLKPEDTAVYYCANRDNALYYGYDYWGQGTQVTVSS", "polyreactivity (PSR sort gate)": "low polyreactivity"}, {"sequence": "QVQLVESGGGLVQAGGSLRISCADSGSIFRRYAMGWYRQAPGKERELVAAISIGGGSTYYADSVKGRFTISRDNAKNTVYLLMTSLKPEDTAVYYCNKVEYDGAYDYWGQGTQVTVSS", "polyreactivity (PSR sort gate)": "low polyreactivity"}, {"sequence": "QVQLVESGGGLVQAGGSLRLSCAPSGFTFRFYVMGWYRQAPGKERELVAAISSSGGSTYYADSVKGRFTISRDNAKYTVYLQMNSMKPEDTAVYYCAADVPGARVSYWTYSGWHYDYWGQGTQVTVSS", "polyreactivity (PSR sort gate)": "high polyreactivity"}, {"sequence": "QVQLVESGGGLVQAGGSLRLSCAASGFTFRYYAMGWYRQAPRKERELVAAIPRNGGSTYYADTVKGRFTISRDNAKNTVYLQMKSLKPEDTAVYYCAAAYYRDSDRRFNYWGQGTQVTVSS", "polyreactivity (PSR sort gate)": "high polyreactivity"}, {"sequence": "QVQLVESGGGLVQAGGSLRLSCAASGRTFGTYALGWYRQAPGKERELVASITSGDSTNYADSVKGRFTISRDNAKNTVYLQMNRLKPEDTAVYYCNARGDVIVTPPKFSFNYEYWGQGTQVTVSS", "polyreactivity (PSR sort gate)": "low polyreactivity"}, {"sequence": "QVQLVESGGGLDQAGGSLRLSCADSGSIFYVYTMGWYRQAPGKERELVAAITSGDGTYYADSVKGRFTISRDNAKSTVYLQMNSLKPEDTAVYYCNADESAYWKLRHGLGSDSWGQGTQVTVSS", "polyreactivity (PSR sort gate)": "low polyreactivity"}, {"sequence": "QVQLVESGGGLVQAGGSLRLSWAASGRLFDGYAMGWYRQAPGTERELVATISSSGGATYYADSVKGRFTISRDNAKNTVYLQMNSLKPEDTAVYYCATAGSVSHWYSYFAFWERDYWGQGTQVTVSS", "polyreactivity (PSR sort gate)": "low polyreactivity"}, {"sequence": "QVQLVESGGGLFEEGGSLRISCAASGRIFAPYAMGWYRHAPGKERELVAAISWSDVSTDYAVSVKGRFTISRDNAKNTVYLQMYSLKPEVTAVYYCAAAYAGYRGWYYYWGQVTQVTVSS", "polyreactivity (PSR sort gate)": "high polyreactivity"}, {"sequence": "QVQLVESGGGLVQAGGSLRLSCAASGSIFKNYAMGWYRQAPGKERELVASITTGASTNYADSVKGLFTISRDNAMNTVYLQMNSLKPEDSAVYYCAAYRPTYYAYYYWGQGTQVTVSS", "polyreactivity (PSR sort gate)": "high polyreactivity"}, {"sequence": "QVQLVESGGRLVQAGGSLRLSCAASGLTFVYNTMGWYSQAPGKERKLVAAISSSGGTTYYADSVKGRFTISRDNAKNTVYLQMNSLKPEDTAVYYCAARPSGGYESTRTRDYWGQGTQVTVSS", "polyreactivity (PSR sort gate)": "low polyreactivity"}, {"sequence": "QVQLVESGGGLVQAGGSLRLSCAASGRILQVEYAMGWNIQAPGKERELVAAITESDGSTSYADSVKGRFTISRDNAKNTVYLQMNSLKPEDTAVYYCNVVRGYPNGGYDYWGQGTQVTVSS", "polyreactivity (PSR sort gate)": "low polyreactivity"}, {"sequence": "QVQLVESGGGLVQAGGSLRLSCAASGSTLYAYAVGWYRQAPGKERELVAAIRTGGSTYYADSVKGRFTISRDNAKNTVYLQMNRLIPEDTAVYYCAADHGYQYGYWGQGTQVTVSS", "polyreactivity (PSR sort gate)": "low polyreactivity"}, {"sequence": "QVQLVESGGGLVQAGGSLRLSCAASGSIFRNNAMGWYRQAPGKERELVAVISRRSGNTYYADSVKGRFTISRDNAKNTVYLQMNSLKPEDTAVYYCAADYSKSSIRGDYWGQGTQVTVSS", "polyreactivity (PSR sort gate)": "low polyreactivity"}, {"sequence": "QVQLVESGGGLVQAGGILRLICDASGFIIGYYAMGWYRQAPGKERELVAAISKSGGRTRYADSVKGRFTISRDNAKNTVYLQMNSLKPEDTAVYYCATYDPARSTQGYDYWGQGTQVTVSS", "polyreactivity (PSR sort gate)": "high polyreactivity"}, {"sequence": "QVQHVESGGGLVQAGGSLRLSCAASGSTFRPYAMGWYRQAPGKERELVARITVSGDSTYYADSVKGRFTISRDNAKNTVYLQMNSLKPEDTAVYYCAREFDYSLSGFDYWGQGTQVTVSS", "polyreactivity (PSR sort gate)": "low polyreactivity"}, {"sequence": "QVQLVESGGGLVQAGGSLRLTCAASGSIFGWYVMGWYIPAPGKERELVAAISSVGSTYYADSVKGRFTISRDNAKNTVYLQMKSLKREDTAVYYCAKLRYPYLFWDDSEYWGQGTQVTVSS", "polyreactivity (PSR sort gate)": "low polyreactivity"}, {"sequence": "QVQLVESGGGLVQAGGSLRLSCAASGIIFFSNTMGWYRQAPGKEREFVAAITWSTGNTYYADSVKGRFTISRDNAKNTVYLQMNSLKPEDTAVYYCYAEYLVITWYGGVEFDYWGQGTEVTVSS", "polyreactivity (PSR sort gate)": "low polyreactivity"}, {"sequence": "QVQLVESGGGLVQAGGSLRLSCAASGIIFRRNAMGWYRQAPGKERELVASITSGGSTNYADSVKGRFTISRDNAKNTVYLQMNSLKPEDTAVYYCATVRKYRAMDYWGQGTQVTVSS", "polyreactivity (PSR sort gate)": "high polyreactivity"}, {"sequence": "QVQLVESGGGLIQAGGSLRLSCAASGIIFYPYTMGWYRQAPGKERELVAAIRQSGTSTYYADSVKGRFTISRDNAKNTVYLQMNSLKPEDTAVYYCAAPPYYSYDYWGQGTQVTVSS", "polyreactivity (PSR sort gate)": "low polyreactivity"}, {"sequence": "QVQLVESGGGLVQARGSLRLSCAASGLTFRWYSMGWYRQAPGKERELVAAISSGGRTYYADSVKGRFTISRDNAKNTVYLQMNSLKPEDTAVYYCSKRTLDYGFGSYGREYWGEGTQVTVSS", "polyreactivity (PSR sort gate)": "high polyreactivity"}, {"sequence": "QVQLVESGVGLVQAGGSLRLSCAASGIIFSSYAMGWYRQAPGKERELVAAITWNGGRTYYADSVKGRFTISRDNAKNSVYLQMNSLKPEDTAVYYCAALQGRSSARQDSYGYWGQGTQVTVSS", "polyreactivity (PSR sort gate)": "high polyreactivity"}, {"sequence": "QVQLVESGGGLVQAGGSLRLSCAASGFIFDFYAMGWYRQAPGKERELVATINSSGTTNYADSVKGRFTISRDNAKNTVYLEMISLKPEDTAVYDCATVEYLGHYTYDYWGQGTQVTVSS", "polyreactivity (PSR sort gate)": "low polyreactivity"}, {"sequence": "QVQLVESGGGLVQAGGSLRLSCAASGSTFHLYAMGWSRQAPGKERELVAVITSGDSTSYADSVKGRFTISRDNAKNTVYLQMNSLKPEDTAVYYCAADSYSGYNYWGQGTQVTVSS", "polyreactivity (PSR sort gate)": "low polyreactivity"}, {"sequence": "QVQLVESGGGLVQAGGSLRLSCAASGRTLGRYAMGWYRQAPGKERELVAAMNVGGGTTHYADSVKGRFTISRDNAKNTVYLQMNSLKPEDTAVYYCAAYRYTYGDRHAYDYWGQGTQVTVSS", "polyreactivity (PSR sort gate)": "low polyreactivity"}, {"sequence": "QVQLVESGGGLVQAGGSLRLSCAASGRIFYRNAMGWYRQAPGKERELVAAITGSGGSTYYADSVKGRFTISRDNAKNTVYLQMNSLKPEDTAVYYCNKPYFLYRPLGTGMEYWGQGTHVTVSS", "polyreactivity (PSR sort gate)": "high polyreactivity"}, {"sequence": "QVQLVESGGGLVQAGGSLRLSCAASGSIFYDYAMGWYSQEPGKERELVAAISSSGITYYADSVKGRFTISRDNAKTTVYLQMNSLKPEDTAVYYCNARSYLRDYDYWGQGTQVTVTS", "polyreactivity (PSR sort gate)": "high polyreactivity"}, {"sequence": "QVQLEESGGGLVQAGGSLRLSCAASGRTFGTNAMGWYRQAPGKERELVAAITTNGGRTYYADSVKGRFTISRDNAKNTVYLQMNSLKPEDTAVYYCAKYYQTDTYIYDYWGQGTQVTVSS", "polyreactivity (PSR sort gate)": "low polyreactivity"}, {"sequence": "QVQLVESGGGLVQAGGSLRLSCAASGRTFVWNAMGWYRQAPGKERELVAAIDWSGGSTYYADSVKGRFTISRDNAKNTVYLQMNSLKPEDSAVYYCAKEYWYRALWYNYWGQGTQVTVSS", "polyreactivity (PSR sort gate)": "high polyreactivity"}, {"sequence": "QVQLVESGGGLVQAGGSLRLSCAASGSTFSPYARGWYRQAPGKERELVANITISGGSTYYADSVKGRFTISRENAKNTVYFQMNSLKPEDTGVYYSNADSLIRWLFTVVIFDYWGQGTQVTVSS", "polyreactivity (PSR sort gate)": "low polyreactivity"}, {"sequence": "QVQLVESGGGLVQAGGSLRLSCAASGRTLPSYSMGCYREAPGKERELFAAITGSGGRTYYADSVKGRFTISRDNAKNSVYLQMNSLKPEDTAVYYCNAYSRTWYARSYYYWGQGTQVTVSS", "polyreactivity (PSR sort gate)": "high polyreactivity"}]}]}
